# From patent US20200140538A1 (INSTITUTE FOR BASIC SCIENCE, published 2020)
# Numbering of substitutions follows the chain as printed.
# T1: mouse IL-2 (mIL-2) (mouse, UniProt P04351 21-169)
# T1 construct: Coated on the ELISA plate at 5 ug/ml
# T1 sequence (looked up): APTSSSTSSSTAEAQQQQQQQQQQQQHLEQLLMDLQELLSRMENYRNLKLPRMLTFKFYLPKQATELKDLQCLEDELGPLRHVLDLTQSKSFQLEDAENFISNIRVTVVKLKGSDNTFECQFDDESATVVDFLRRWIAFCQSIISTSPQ
# B1: MAB602 (antibody, from another filing, V domains shown)
# VH: EVQLQESGPGLVAPSQSLSITCTVSGFSLTNYDISWIRQPPGKGLEWLGVIWTGGGTNYNSGFMSRLSITKDNSKSQVFLKMNSLQTDDTAIYYCVRQGRTPYWGQGTLVTVSA
# VL: DIQVTQSPSSLSVSLGDRVTITCKASKDIYNRLAWYQQKPGNAPRLLISGATSLETGVPSRFSGSGSGKDYTLTITSLQTEDVATYYCQQFWGTPYTFGGGTKLEIKR
# B2: TCB2 monoclonal antibody (mouse TCB2) (antibody, V domains shown)
# VH: EVQLQQSGAELARPGASVKLSCKASGYTFTTYWIQWVKQRPGQGLEWIGAIYPGDGDTRYIQNFKGKATLTADKSSSTAYMQLSSLASEDSAVYYCARSLATRGFYAMDYWGQGTSVTVSS
# VL: DIVMTQSPASLSMAIGEKVTIRCITSTDIDDDMNWYQQKPGEPPKLLISEGNTLRPGVPSRFSSSGYGTDFVFTIENMLSEDVADYYCLQSDNLPYTFGGGTKLEIK
# notes: Mouse hybridoma antibody from BALB/c mice immunized with hIL-2; It was detected with anti-mouse IgG HRP; also called TCB2 mAb; mTCB2
# B3: human chimeric TCB2 (antibody, human IgG2, kappa, V domains shown)
# VH: B2 VH
# VL: DIVMTQSPASLSMAIGEKVTIRCITSTDIDDDMNWYQQKPGEPPKLLISEGNTLRPGVPSRFSSSGYGTDFVFTIENMLSEDVADYYCLQSDNLPYTFGGGTKLEIKR
# notes: The Fab region of TCB2 mAb was cloned into an IgG2 expression vector; also called hcTCB2
# B4: S4B6 (antibody, V domains shown)
# VH: EVQLQESGAELVRPGTSVKLSCKVSGDTITAYYLHFVRQRPGQGLEWIGRIDPEDDSTKYAENFKNKATFTADASSNTAYLRLSSLTSEDTATYFCTTVTFYYSRELRWFAYWGQGTLVTVSS
# VL: DIQVTQSPASLSASLEEIVTITCQASQDIGNYLSWYQQKLGKSPQLLIHSATSLADGVPSRFSGSRSGTQYSLKINRLQVEDTGIYYCLQHYSTPYTFGAGTKLELK
# B5: humanized TCB2 clone VH1+VL2 (antibody, V domains shown)
# VH: QVQLVQSGAEVKKPGASVKVSCKASGYTFTTYWIQWVRQAPGQGLEWMGAIYPGDGDTRYIQNFKGRVTMTRDTSTSTVYMELSSLRSEDTAVYYCARSLATRGFYAMDYWGQGTLVTVSS
# VL: DIVMTQSPSSLSASVGDRVTIRCITSTDIDDDMNWYQQKPGKAPKLLISEGNTLRPGVPSRFSGSGYGTDFTFTISSLQPEDIADYYCLQSDNLPYTFGGGTKLEIK
# notes: Humanized and expressed with human IgG1 Fc; also called VL2+VH1; hnTCB2
# B6: humanized TCB2 clone VH2+VL2 (antibody, V domains shown)
# VH: B5 VH with V20L, R38K, M48I, R72A
# VL: B5 VL
# notes: Humanized and expressed with human IgG1 Fc; also called VL2+VH2; hnTCB2
# B7: humanized TCB2 clone AH03463 (VL03463+VH03463) (antibody, V domains shown)
# VH: B5 VH with Q1E, R38K
# VL: B5 VL with V3Q, R22T, S49Y, G64S, Y67S, D85T
# notes: Humanized and expressed with human IgG1 Fc; also called hnTCB2
# Key:
# [1] = biological target: T2, human interleukin-2 (hIL-2) (human, UniProt P60568 21-153); assay: ELISA on plate coated with hIL-2 (5 µg/ml), titrated mAb, detection with anti-mouse IgG HRP or anti-rat IgG HRP
# T2 construct: mature; The 133-residue length in the definition corresponds to the mature protein; also called human IL-2
# mouse IL-2 (mIL-2) = biological target: T1, mouse IL-2 (mIL-2); assay: ELISA on plate coated with mIL-2 (5 µg/ml), titrated mAb, detection with anti-mouse IgG HRP or anti-rat IgG HRP
# Experimental: In vivo mouse models were used to evaluate the therapeutic efficacy of a hIL-2/TCB2 mAb complex. […] First, the splenocytes of BALB/c mice immunized 3-4 times with hIL-2 over several weeks were fused with SP/2 myeloma cells. When the hybridoma colony was visualized, the culture supernatant was subjected to ELISA. 5 μg/ml of hIL-2 or mIL-2 was added to and mixed with PBS, and a total of 50 μl of the mixture was coated on an ELISA plate. Next, 200 μl of 10% FBS was added to the PBS and incubated at room temperature for 30 minutes in order to prevent non-specific binding, and a titrated dose of the monoclonal antibody was incubated for 30 minutes. The binding of the monoclonal antibody to the coated hIL-2 or mIL-2 was detected with anti-mouse IgG HRP or anti-rat IgG HRP. In each step, the plate was washed 3-5 times with 200 μl of PBS. As positive controls, commercially available monoclonal antibodies were used. As a positive control for hIL-2, Mab602 was used, and as positive controls for mIL-2, JES6-1 and S4B6 were used.
# [2] = biological target: T2, human interleukin-2 (hIL-2); assay: SPR, Biacore T100; antibody immobilized on a CM5 chip by amine coupling, hIL-2 flowed as 2-fold dilutions from 100 nM
# Experimental: For detection of hIL-2, […] was used. 900 RU (Rmax=90) of anti-hIL-2 clones were immobilized on a CM5 chip by amine coupling. A 2-fold dilution (100 nM) of hIL-2 was allowed to flow on the chip at a rate of 10 μl/min for 3 minutes, and then dissociation of the hIL-2 was monitored for 10 minutes.
# [3] = biological target: T2, human interleukin-2 (hIL-2); assay: kinetic affinity for hIL-2, Set 1; method not given
# [4] = biological target: T2, human interleukin-2 (hIL-2); assay: kinetic affinity for hIL-2, Set 2; method not given
# [5] = biological target: T2, human interleukin-2 (hIL-2); assay: kinetic affinity for hIL-2, Set 1; method not given; Set 1
# T2 sequence (P60568 21-153): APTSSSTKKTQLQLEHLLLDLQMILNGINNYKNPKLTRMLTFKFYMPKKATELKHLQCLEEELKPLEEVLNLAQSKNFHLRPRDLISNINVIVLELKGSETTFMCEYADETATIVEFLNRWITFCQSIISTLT
binder,measurement,setting,value
B1,EC50 (read off the curve),[1],0.04 µg/mL
same,EC50 (read off the curve),mouse IL-2 (mIL-2),0.03 µg/mL
same,Kd,[2],0.213 nM
same,koff,[2],0.000948 s⁻¹
same,kon,[2],4.43e+06 M⁻¹ s⁻¹
B2,binding result,mouse IL-2 (mIL-2),no binding (tested: 10000 ng/ml)
same,Kd,[2],0.0811 nM
same,koff,[2],0.000419 s⁻¹
same,kon,[2],5.17e+06 M⁻¹ s⁻¹
B3,Kd,[3],0.0717 nM
same,koff,[3],0.00163 s⁻¹
same,Kd,[4],0.0616 nM
same,koff,[4],0.00141 s⁻¹
same,kon,[4],2.29e+07 M⁻¹ s⁻¹
same,kon,[5],2.27e+07 M⁻¹ s⁻¹
B4,EC50 (read off the curve),mouse IL-2 (mIL-2),~0.3 µg/mL
B5,Kd,[3],0.104 nM
same,koff,[3],0.00197 s⁻¹
same,kon,[3],1.89e+07 M⁻¹ s⁻¹
B6,Kd,[3],0.275 nM
same,koff,[3],0.00463 s⁻¹
same,kon,[3],1.68e+07 M⁻¹ s⁻¹
B7,Kd,[4],0.198 nM
same,koff,[4],0.00418 s⁻¹
same,kon,[4],2.11e+07 M⁻¹ s⁻¹
